Target: Recombinant hemagglutinin of H3N2 A/Texas/50/2012, ectodomain, monomeric (Influenza A virus A/Texas/50/2012 (H3N2), UniProt R4L1D1, strain)
Assay: SPR
Conditions: both partners purified

B1: AF4H1K1 Fab (Fab, V domains shown)
VH: QVQLVESGGGVVQPGTSLRLSCEASGFTSSAYAMHWVRQAPGKGLEWVAVITFDGGYQYYADSVKGRFTISRDISRNTLHLHMNSLRAEDTAVYYCARDPLTKLLPFDWVSGGYFDYWGQGTLVTVSS
VL: not shown
notes: also called H1 paired with K1
Question: Which Kd does the source give for B1 here?
Answer: 49 nM

From article PMC6465249 (Cell Discovery, 2019)
